Reference: patent US20240254227A1 (Alector, published 2024)
Where a chain is given by its changes, count along the chain named.

B1: anti-CD300LB antibody CD-03 (antibody, V domains shown)
VH: EVQLQQSGPELVKPGASVKISCKASGYTFTDYYINWVRQSHGKSLECIGDINPNNGGTNYNQKFKGKATLTVDRSSNTAYMEFRSLTFDDSALYYCAAEGAYWGQGTLVTVSA
VL: not shown
B2: anti-CD300LB antibody CD-05 (antibody, V domains shown)
VH: QVQLVQSGAEVKKPGASVKVSCKASGYTFSRYYINWVRQAPGQGLEWMGWINPNSGGTNYAQKFQGRVTMTRDTSTSTVYMELSSLRSEDTAVYYCTTDQLRFGKTGPYYGMDVWGQGTTVTVSS
VL: DIQMTQSPSSLSASVGDRVTITCRASQNIGTYLNWYQQKPGKAPKLLIYAASSLQSGVPSRFSGSGSGTDFTLTISSLQPEDFATYYCQQSYSDTLTFGGGTKVEIK
B3: anti-CD300LB antibody CD-02 (antibody, V domains shown)
VH: QVQLQQPGAELVRPGSSVKLSCQASGYTFTNYWMHWVRQRPIQGLEWIGNIDPSDSETHYNQKFKDRATLTVDKSSSTAYMQLSSLTSEDSAVYYCARSGVYDDEGGDYWGQGTTLTVSS
VL: ENVLTQSPAIMSASPGEKVTMTCSASSSVSYIHWYQQKSSTSPKLWIYDTSKLASGVPGRFSGSGSGNSYSLTISSMETEDVATYYCFQGSGYPLTFGAGTKLELK
B4: anti-CD300LB antibody CD-01 (antibody, V domains shown)
VH: RVQLQQSGAELVRPGASVTLSCKASGFTFTDFEMHWVKKTPVHGLEWIGAIDPESGNTAYNQKFRGKATLTADKSSSTAYMELRYLTSEDSAVYYCTPLISGADYWGQGTTLTVSS
VL: DVVMTQSPLSLPVSLGDQASISCRSSQSLVHSDGNTYLYWYLQKPGQSPKLLIYKVSNRFSGVPDRFSGSGSGTDFTFKISRVGAEDLGVYFCSQSTHVPWTFGGGTKLEII
B5: anti-CD300LB antibody CD-18 (antibody, V domains shown)
VH: DVQLQESGPDLVKPSQSLSLTCTVTGYSITSGYSWHWIRQFPDNKLEWMGYILSRGDTNFNPSLKSRISITRSTSNNQFFLHFNSVTTEDTATYYCARDFFDYWGQGTTLTVSS
VL: DVLMTQTPLSLPVSLGDQASISCRSSQSIVHSNGNTYLEWYLQKPGQSPKLLIYKVSDRFSGVPDRFSGSGSGTDFTLKISRVEAEDLGVYFCFQGSHVPYTFGGGTKLEIK
B6: anti-CD300LB antibody CD-12 (antibody, V domains shown)
VH: QIQLVQSGPELKKPGETVKISCKASGYTFTDYSMHWVRQAPGKGLKWMAWINTETGEATHADDFKGRFDFSLDTSASTAYLQIKNLKNEDTGIYFCVCYGSSYGMDYWGQGTSVTVSS
VL: DIVLTQSPASLPVSLGQRATISCRASKSVRTSGASYMHWYQQKPGQPPKLLIYLASNLKSGVPTRFSGSGSGTDFTLNIHPVEEEDAATYYCQHNREVPPTFGGGTKLEIK
B7: anti-CD300LB antibody CD-17 (antibody, V domains shown)
VH: QIQLVQSGPELKKPGETVKISCKASGYTLTDYSMHWVKQAPGKGLKWMGWINTETGEPRYGDDFKGRFAFSLETSASSAYLQINNLKNDDTATYFCATYGRSYGMDFWGQGTSVTVSS
VL: B6 VL with P12A, R30S, T31P, A34H, T64A, E85G, V98L, T106S

Biological target: T1, human CD300A-Fc (human)
T1 construct: hIgG1-Fc fusion; the entry is the whole fusion chain
T1 chain: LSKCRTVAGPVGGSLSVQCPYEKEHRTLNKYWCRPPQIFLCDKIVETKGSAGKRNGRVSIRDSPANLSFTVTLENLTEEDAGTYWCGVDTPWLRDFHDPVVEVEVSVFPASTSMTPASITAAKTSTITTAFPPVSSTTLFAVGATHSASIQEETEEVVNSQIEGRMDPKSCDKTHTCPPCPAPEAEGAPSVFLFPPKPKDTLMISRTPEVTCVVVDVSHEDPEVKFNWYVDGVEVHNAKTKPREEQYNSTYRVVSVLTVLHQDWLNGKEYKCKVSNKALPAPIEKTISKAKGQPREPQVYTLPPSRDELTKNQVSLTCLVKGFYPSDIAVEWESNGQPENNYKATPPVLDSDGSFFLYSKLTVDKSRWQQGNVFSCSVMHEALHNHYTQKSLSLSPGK
Test: SPR (Carterra LSA), antibody immobilised
Source text: (§1) In addition to the screening of antibodies for cross-reactivity by FACS analysis, surface plasmon resonance (SPR) analysis was used to determine the binding of antibodies to recombinant huCD300 and muCD300 family members (orthologs) conjugated to an Fc (human CD300A-Fc SEQ ID NO:144; human CD300LB-Fc SEQ ID NO:145; human CD300C-Fc SEQ ID NO: 146; human CD300D-Fc SEQ ID NO: 147; human CD300E-Fc SEQ ID NO: 148; human CD300F-Fc SEQ ID NO: 149; murine CD300A-Fc SEQ ID NO: 150; murine CD300LB-Fc SEQ ID NO:151; murine CD300C-Fc SEQ ID NO: 152; murine CD300D-Fc SEQ ID NO: 153, and murine CD300E-Fc SEQ ID NO: 154).
(§2) Binding of mouse anti-CD300LB IgG1 antibodies of the present disclosure to human and murine CD300 orthologs were evaluated by surface plasmon resonance (SPR) using a Carterra LSA instrument (Carterra, Salt Lake City, UT). […] A HC200M sensor chip (Carterra) was activated using the single channel flow cell with a 7-minute injection of a 1:1:1 mixture of 100 mM MES pH 5.5, 100 mM sulfo-NHS, 400 mM EDC (all reconstituted in MES pH 5.5; 100 μL of each mixed in vial immediately before running assay). After switching to the multi-channel array flow cell, the antibodies were injected over the activated chip in a 96-spot array for 10 minutes. The remaining unconjugated active groups on the chip were then blocked by injecting 1M Ethanolamine pH 8.5 (Carterra) for 7 minutes using the single channel flow cell. After priming with running buffer (HBS-TE, Carterra) with 0.5 mg/ml BSA (Sigma), the immobilized anti-CD300LB antibodies were tested for their ability to bind human and mouse recombinant CD300LB extracellular domains. Human CD300 family members and mouse CD300A were hIgG1-Fc fusions, while mouse CD300LB, mouse CD300C, mouse CD300D, and mouse CD300E were mouse IgG2a-Fc fusions (R&D Systems). Binding was assessed by injecting each analyte over the entire antibody array using the single channel flow cell. CD300 analytes were diluted to 300 nM or 600 nM in running buffer and injected in series without regeneration. Two or three buffer blanks were run between each mouse or human ortholog, respectively. Data were processed and analyzed using NextGenKIT high-throughput kinetics analysis software (Carterra).

Binding result, no binding (tested: 300 nM or 600 nM):
B1, B2, B3, B4

Biological target: T2, murine CD300C-Fc (mouse)
T2 construct: mouse IgG2a-Fc fusion (R&D Systems); the entry is the whole fusion chain; also called mCD300C; Mouse CD300C-Fc
T2 chain: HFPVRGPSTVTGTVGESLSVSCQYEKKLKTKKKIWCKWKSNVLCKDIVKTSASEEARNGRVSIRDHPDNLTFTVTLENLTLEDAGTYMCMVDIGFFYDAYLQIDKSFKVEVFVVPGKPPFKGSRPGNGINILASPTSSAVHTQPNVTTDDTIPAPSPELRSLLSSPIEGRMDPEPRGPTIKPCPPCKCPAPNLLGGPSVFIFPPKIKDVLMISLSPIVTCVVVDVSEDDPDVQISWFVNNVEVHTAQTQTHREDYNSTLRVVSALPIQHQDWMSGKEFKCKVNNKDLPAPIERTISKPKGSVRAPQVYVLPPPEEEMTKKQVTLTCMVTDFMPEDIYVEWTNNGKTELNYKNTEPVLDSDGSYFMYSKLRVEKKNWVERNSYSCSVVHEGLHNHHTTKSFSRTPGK
Test: SPR (Carterra LSA), antibody immobilised
Source text: as §1, §2

Binding result, no binding (tested: 300 nM or 600 nM):
B5, B6, B7

Biological target: T3, human CD300C-Fc (human)
T3 construct: hIgG1-Fc fusion; the entry is the whole fusion chain
T3 chain: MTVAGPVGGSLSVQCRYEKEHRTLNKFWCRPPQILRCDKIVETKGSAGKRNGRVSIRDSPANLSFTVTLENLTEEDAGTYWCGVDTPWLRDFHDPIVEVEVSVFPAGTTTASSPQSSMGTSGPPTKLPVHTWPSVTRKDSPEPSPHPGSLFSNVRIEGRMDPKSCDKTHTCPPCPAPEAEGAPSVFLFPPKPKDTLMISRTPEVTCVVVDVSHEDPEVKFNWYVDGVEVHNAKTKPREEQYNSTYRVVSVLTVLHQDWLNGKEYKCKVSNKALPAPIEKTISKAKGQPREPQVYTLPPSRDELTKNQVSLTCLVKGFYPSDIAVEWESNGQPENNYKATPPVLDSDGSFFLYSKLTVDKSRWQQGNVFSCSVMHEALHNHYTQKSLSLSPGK
Test: SPR (Carterra LSA), antibody immobilised
Source text: as §1, §2

Binding result, no binding (tested: 300 nM or 600 nM):
B1, B2, B3, B4

Biological target: T4, human CD300F-Fc (human)
T4 construct: hIgG1-Fc fusion; the entry is the whole fusion chain
T4 chain: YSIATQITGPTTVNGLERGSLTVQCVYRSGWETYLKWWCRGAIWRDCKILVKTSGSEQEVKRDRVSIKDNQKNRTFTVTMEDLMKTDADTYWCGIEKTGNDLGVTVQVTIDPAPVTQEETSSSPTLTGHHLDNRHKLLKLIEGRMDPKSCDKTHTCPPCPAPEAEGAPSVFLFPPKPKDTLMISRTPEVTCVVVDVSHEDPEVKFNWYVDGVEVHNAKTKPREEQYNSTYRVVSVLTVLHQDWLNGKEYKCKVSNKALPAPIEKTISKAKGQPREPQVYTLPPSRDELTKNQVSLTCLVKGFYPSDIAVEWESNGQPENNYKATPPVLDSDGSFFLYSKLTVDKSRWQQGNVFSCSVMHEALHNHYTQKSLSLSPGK
Test: SPR (Carterra LSA), antibody immobilised
Source text: as §1, §2

Binding result, no binding (tested: 300 nM or 600 nM):
B1, B2, B3, B4
